Test results reported in article PMC5435866.

Legend:
Assay in all cases: EMSA
Drosophila SLBP 4S-4E = target: T1, Drosophila SLBP 4S-4E (UniProt Q9VAN6 1-276, S269E;S271E;S273E;S275E)
T1 sequence: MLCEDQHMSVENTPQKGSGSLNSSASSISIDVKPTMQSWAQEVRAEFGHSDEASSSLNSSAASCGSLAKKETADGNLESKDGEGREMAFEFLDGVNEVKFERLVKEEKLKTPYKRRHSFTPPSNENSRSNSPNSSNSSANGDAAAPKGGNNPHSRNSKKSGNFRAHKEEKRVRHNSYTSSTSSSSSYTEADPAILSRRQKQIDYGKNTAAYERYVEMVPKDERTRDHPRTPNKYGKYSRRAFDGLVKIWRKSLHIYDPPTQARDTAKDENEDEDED

Drosophila SLBP ER = target: T2, Drosophila SLBP ER (UniProt Q9VAN6 1-276, A210G;E212Q;R213C)
T2 sequence: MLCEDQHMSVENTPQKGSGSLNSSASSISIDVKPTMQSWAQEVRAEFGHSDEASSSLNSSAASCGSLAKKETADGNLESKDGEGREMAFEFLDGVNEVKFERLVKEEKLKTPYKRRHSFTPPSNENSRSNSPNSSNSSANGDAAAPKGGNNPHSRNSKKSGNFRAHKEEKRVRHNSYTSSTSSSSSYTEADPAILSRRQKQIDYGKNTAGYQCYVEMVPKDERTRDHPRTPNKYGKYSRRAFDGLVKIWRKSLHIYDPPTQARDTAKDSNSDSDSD

Drosophila SLBP 4S-4A = target: T3, Drosophila SLBP 4S-4A (UniProt Q9VAN6 1-276, S269A;S271A;S273A;S275A)
T3 sequence: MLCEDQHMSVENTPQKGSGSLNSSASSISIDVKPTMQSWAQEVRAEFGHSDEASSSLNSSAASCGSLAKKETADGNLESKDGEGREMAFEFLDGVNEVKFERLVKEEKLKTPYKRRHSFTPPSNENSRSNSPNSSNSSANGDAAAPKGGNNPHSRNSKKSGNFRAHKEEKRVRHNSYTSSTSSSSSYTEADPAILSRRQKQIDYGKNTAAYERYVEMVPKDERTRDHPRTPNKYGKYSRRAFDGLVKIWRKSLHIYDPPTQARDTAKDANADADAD

Measured: binding result

GUGCCAAAAAGGCUCUUUUCAGAGCCACCCA (structured_RNA) [SL RNA]
binds: all assays above
